# Laboratory results: the supplement of paper PMC9112550, “Optimization of the antimicrobial peptide Bac7 by deep mutational scanning” (BMC Biology, 2022)
# Test system: Escherichia coli TOP10
# Test: shrunken log2 fold change of peptide-encoding DNA abundance (4.5 h post-induction vs induction); higher = less antimicrobial activity (less host growth inhibition)
# Details: time post-induction: 4.5 h; library: site-saturation at positions 5, 18, 19, 20
# 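Note: peptides expressed intracellularly from a pBAD plasmid library in pooled LB shake-flask culture, induced with 0.3% L-arabinose, DNA abundance read by NGS, three biological replicates, DESeq2 with apeglm shrinkage.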
row,Sequence,shrunken log2 fold change
1,RRIRFRPPRLPRPRPRPCCDPRP,-0.239
2,RRIRWRPPRLPRPRPRPKFVPRP,0.295
3,RRIRVRPPRLPRPRPRPNPMPRP,0.0227
4,RRIRVRPPRLPRPRPRPYGDPRP,-0.168
5,RRIRWRPPRLPRPRPRPGGTPRP,0.209
6,RRIRKRPPRLPRPRPRPRVMPRP,0.436
7,RRIRKRPPRLPRPRPRPTGRPRP,0.609
8,RRIRMRPPRLPRPRPRPNQAPRP,-0.00973
9,RRIRERPPRLPRPRPRPFQKPRP,-0.178
10,RRIRRRPPRLPRPRPRPVNGPRP,0.0578
11,RRIRPRPPRLPRPRPRPCNTPRP,-0.333
12,RRIRRRPPRLPRPRPRPYLIPRP,-0.082
13,RRIRLRPPRLPRPRPRPGFEPRP,0.168
14,RRIRERPPRLPRPRPRPGIGPRP,-0.0295
15,RRIRTRPPRLPRPRPRPDAIPRP,-0.141
16,RRIRVRPPRLPRPRPRPSVWPRP,0.102
17,RRIRYRPPRLPRPRPRPSAEPRP,-0.0651
18,RRIRTRPPRLPRPRPRPIIWPRP,-0.0836
19,RRIRQRPPRLPRPRPRPDFHPRP,0.0254
20,RRIRVRPPRLPRPRPRPKDKPRP,-0.13
21,RRIRKRPPRLPRPRPRPYNQPRP,-0.312
22,RRIRQRPPRLPRPRPRPIQVPRP,-0.201

row,Sequence,shrunken log2 fold change
1,RRIRCRPPRLPRPRPRPQNFPRP,-0.43
2,RRIRVRPPRLPRPRPRPLYVPRP,-0.705
3,RRIRIRPPRLPRPRPRPWKWPRP,-0.00992
4,RRIRHRPPRLPRPRPRPLPWPRP,0.108
5,RRIRQRPPRLPRPRPRPSGPPRP,-0.0826
6,RRIRRRPPRLPRPRPRPYDYPRP,0.00863
7,RRIRKRPPRLPRPRPRPLCEPRP,0.446
8,RRIRTRPPRLPRPRPRPKPQPRP,0.203
9,RRIRERPPRLPRPRPRPTTEPRP,-0.0421
10,RRIRERPPRLPRPRPRPHCQPRP,0.00361
11,RRIRVRPPRLPRPRPRPWNIPRP,-0.582
12,RRIRARPPRLPRPRPRPRVQPRP,0.359
13,RRIRERPPRLPRPRPRPVEPPRP,0.0248
14,RRIRGRPPRLPRPRPRPECNPRP,1.95
15,RRIRFRPPRLPRPRPRPARFPRP,0.1
16,RRIRNRPPRLPRPRPRPVVGPRP,0.392
17,RRIRMRPPRLPRPRPRPDVCPRP,0.0762
18,RRIRKRPPRLPRPRPRPAGAPRP,0.698
19,RRIRARPPRLPRPRPRPICEPRP,0.512
20,RRIRHRPPRLPRPRPRPWRDPRP,-0.154
21,RRIRNRPPRLPRPRPRPHFAPRP,0.0588
22,RRIRWRPPRLPRPRPRPWVVPRP,1.61

row,Sequence,shrunken log2 fold change
1,RRIRVRPPRLPRPRPRPAADPRP,0.437
2,RRIRFRPPRLPRPRPRPNIFPRP,-0.229
3,RRIRMRPPRLPRPRPRPIPRPRP,0.634
4,RRIRQRPPRLPRPRPRPWLSPRP,0.0988
5,RRIRYRPPRLPRPRPRPALHPRP,0.12
6,RRIRARPPRLPRPRPRPLPNPRP,0.286
7,RRIRRRPPRLPRPRPRPVVSPRP,0.132
8,RRIRARPPRLPRPRPRPFRPPRP,0.153
9,RRIRCRPPRLPRPRPRPQVDPRP,0.0243
10,RRIRVRPPRLPRPRPRPGTQPRP,-0.183
11,RRIRLRPPRLPRPRPRPVPEPRP,0.161
12,RRIRMRPPRLPRPRPRPYCNPRP,-0.189
13,RRIRRRPPRLPRPRPRPWTHPRP,0.0267
14,RRIRGRPPRLPRPRPRPHSAPRP,0.0365
15,RRIRNRPPRLPRPRPRPKSTPRP,-0.271
16,RRIRPRPPRLPRPRPRPCFKPRP,-0.341
17,RRIRQRPPRLPRPRPRPDTGPRP,-0.0117
18,RRIRCRPPRLPRPRPRPGSEPRP,0.286
19,RRIRERPPRLPRPRPRPILAPRP,-0.349
20,RRIRGRPPRLPRPRPRPQSHPRP,0.214
21,RRIRGRPPRLPRPRPRPMGNPRP,0.124
22,RRIRKRPPRLPRPRPRPTHDPRP,-0.101

row,Sequence,shrunken log2 fold change
1,RRIRARPPRLPRPRPRPQPNPRP,0.396
2,RRIRVRPPRLPRPRPRPGLPPRP,0.113
3,RRIRKRPPRLPRPRPRPQVLPRP,-0.165
4,RRIRLRPPRLPRPRPRPLNMPRP,-0.461
5,RRIRFRPPRLPRPRPRPWDGPRP,0.00772
6,RRIRPRPPRLPRPRPRPQDKPRP,-0.00457
7,RRIRNRPPRLPRPRPRPFDQPRP,-0.0155
8,RRIRSRPPRLPRPRPRPIESPRP,-0.385
9,RRIRIRPPRLPRPRPRPKFVPRP,-0.0693
10,RRIRWRPPRLPRPRPRPVCYPRP,0.028
11,RRIRPRPPRLPRPRPRPAHCPRP,0.0637
12,RRIRMRPPRLPRPRPRPWGNPRP,-0.00136
13,RRIRSRPPRLPRPRPRPKTIPRP,-0.174
14,RRIRYRPPRLPRPRPRPPSHPRP,-0.383
15,RRIRERPPRLPRPRPRPWFGPRP,0.0197
16,RRIRSRPPRLPRPRPRPLKSPRP,0.0254
17,RRIRTRPPRLPRPRPRPQHNPRP,-0.324
18,RRIRFRPPRLPRPRPRPWIQPRP,-0.997
19,RRIRSRPPRLPRPRPRPGYVPRP,-0.809
20,RRIRVRPPRLPRPRPRPRMTPRP,0.265
21,RRIRERPPRLPRPRPRPQIEPRP,-0.208
22,RRIRIRPPRLPRPRPRPLDSPRP,-0.0212

row,Sequence,shrunken log2 fold change
1,RRIRCRPPRLPRPRPRPVEKPRP,0.551
2,RRIRCRPPRLPRPRPRPGNIPRP,-0.198
3,RRIRRRPPRLPRPRPRPFWSPRP,0.18
4,RRIRQRPPRLPRPRPRPMDNPRP,-0.367
5,RRIRQRPPRLPRPRPRPEGEPRP,0.0215
6,RRIRPRPPRLPRPRPRPPCYPRP,0.0837
7,RRIRYRPPRLPRPRPRPCNPPRP,-0.217
8,RRIRQRPPRLPRPRPRPTFYPRP,-0.116
9,RRIRIRPPRLPRPRPRPQVNPRP,-0.444
10,RRIRGRPPRLPRPRPRPANIPRP,-0.0276
11,RRIRLRPPRLPRPRPRPKCHPRP,-0.387
12,RRIRDRPPRLPRPRPRPKSTPRP,-0.175
13,RRIRERPPRLPRPRPRPSPRPRP,0.265
14,RRIRARPPRLPRPRPRPTVDPRP,0.732
15,RRIRDRPPRLPRPRPRPRWVPRP,0.263
16,RRIRGRPPRLPRPRPRPFIQPRP,-0.382
17,RRIRVRPPRLPRPRPRPTRPPRP,0.822
18,RRIRLRPPRLPRPRPRPSHFPRP,-0.0938
19,RRIRTRPPRLPRPRPRPKNGPRP,0.0173
20,RRIRTRPPRLPRPRPRPFDMPRP,-0.00208
21,RRIRLRPPRLPRPRPRPFTNPRP,0.0104
